US7615380B2, “Methods for modulating an immune response by modulating KRC activity” (President and Fellows of Harvard College, priority 2001, dated 2009)
Like-named read-outs stand apart in the source and are kept apart here.

B1: KRC tr: truncated KRC, amino acid residues 204 to 1055 of SEQ ID NO:2 (protein, listed as Homo sapiens)
chain: PSVLQKHIRSHTGERPYPCGPCGFSFKTKSNLYKHRKSHAHRIKAGLASGMGGEMYPHGLEMERIPGEEFEEPTEGESTDSEEETSATSGHPAELSPRPKQPLLSSGLYSSGSHSSSHERCSLSQSSTAQSLEDPPPFVEPSSEHPLSHKPEDTHTIKQKLALRLSERKKVIDEQAFLSPGSKGSTESGYFSRSESAEQQVSPPNTNAKSYAEIIFGKCGRIGQRTAMLTATSTQPLLPLSTEDKPSLVPLSVPRTQVIEHITKLITINEAVVDTSEIDSVKPRRSSLSRRSSMESPKSSLYREPLSSHSEKTKPEQSLLSLQHPPSTAPPVPLLRSHSMPSAACTISTPHHPFRGSYSFDDHITDSEALSRSSHVFTSHPRMLKPQPAIELPLGGEYSSEEPGPSSKDTASKPSDEVEPKESELTKKTKKGLKTKGVIYECNICGARYKKRDNYEAHKKYYCSELQIAKPISAGTHTSPEAEKSQIEHEPWSQMMHYKLGTTLELTPLRKRRKEKSLGDEEEPPAFESTKSQFGSPGPSDAARNLPLESTKSPAEPSKSVPSLEGPTGFQPRTPKPGSGSESGKERRTTSKEISVIQHTSSFEKSDSLEQPSGLEGEDKPLAQFPSPPPAPHGRSAHSLQPKLVRQPNIQVPEILVTEEPDRPDTEPEPPPKEPEKTEEFQWPQRSQTLAQLPAEKAPPKKKRLRLAEMAQSSGESSFESSVPLSRSPSQESNVSLSGSSRSASFERDDHGKAEAPDPSSDMRPKPLGTHMLTVPSHHPHAREMRRSASEQSPNVSHSAHMTETRSKSFDYGSLSLTGPSAPAPVAPPAGEAPPERRKCFLVRSPSLSRPP

Tests used:
[1] = system: AP-1; experiment: AP-1 luciferase reporter in Jurkat cells, KRC-enhanced transactivation after PMA plus ionomycin; type: cell-based, human; details: pretreated with Rottlerin (10 μM), PMA plus ionomycin 6 hours
Procedure: FIG. 20(A) Jurkat cells were transiently transfected with AP-1 Luciferase reporter along with KRC and RasN17 DN vectors. 24 hours later cells were pretreated with Rottlerin (10 μM) and stimulated for 6 hours with PMA plus ionomycin. Luciferase activity was measured as above. FIG. 20(B) Jurkat cells were transfected with a GAL4 Luciferase reporter along with a GAL4 DNA binding domain, GAL4-ATF2, or GAL4-ELK1 with or without KRC. 24 hours later, cells were stimulated with PMA plus ionomycin and analyzed for Luciferase activity as above. FIG. 20(C) Jurkat cells were transiently transfected with FLAG-JNK2, and either Vector, KRC, or MKK7. 48 hours later, cells were stimulated with PMA plus ionomycin for 6 hours and JNK activity was determined by immunoprecipitation/kinase assay. Equal amounts of FLAG-Jnk2 protein were immunoprecipitated, as judged by anti-FLAG western blot (lower panel).
For each transfection, 5×10^6 Jurkat cells were incubated with either IL2-Luc, NFAT/AP1-Luc or AP1-Luc reporter DNA together with pEF vector or pEF-KRC and CMV-βGAL as normalization control in 0.4 ml of RPMI and transfected by electroporation (260 v, 975 uF). Transfected cells were cultured at 37° C. for 20 h in RPMI 1640 medium (Gibco BRL) supplemented with 10% fetal bovine serum. Transfected cells were stimulated with PMA (50 ng/ml) and ionomycin (2 uM) for 6 hours prior to luciferase (Promega) and β-galactosidase assays (Galacton-PLUS substrate system, TROPIX, Inc).

[2] = system: NFκB; experiment: NFκB luciferase reporter transfection assay in 293T cells; type: cell-based, human
Procedure: FIGS. 2(A)-2(C) depicts KRC preventing TRAF-dependent NFkB activation. Inhibition of TRAF2 (FIG. 2(A)), TRAF5 (FIG. 2(B)) and TRAF6 (FIG. 2(C)) mediated activation of NFkB by ectopically expressed KRC. 293 T cells (3×10^5 ) were transfected with 25 ng of NFkB luciferase reporter plasmid, 50 ng of CMVβGal and 1 μg of each indicated plasmid and 24 hours post transfection cells were harvested. Data from at least five experiments normalized for β galactosidase activity are shown. Vec refers to the empty MYC vector without the addition of TRAFs.
293 T cells (3×10^5 ) were transfected with 25 ng of NFκB luciferase reporter plasmid, 50 ng of CMVβGal and 1 μg of each indicated plasmid and 24 hours post transfection cells were stimulated for 4 hours with 10 ng/ml of TNFα. (A) KRC and KRC tr (B) dominant negative and antisense KRC (C) antisense KRC in the presence of exogenous TRAF2. Data from at least five experiments normalized for β galactosidase activity are shown.
HEK293 cells ([…] per well) were seeded in 6 well plates, and 12 h later cells were transfected with EFECTENE™ (Qiagen) with 25 ng of a 2XNFκB-luciferase (Luc) reporter gene plasmid and 0.5 μg of the indicated TRAF and KRC expression vectors. Total amounts of transfected DNA were kept constant by supplementing with control empty expression vector plasmids as needed. Cell extracts were prepared 24 h after transfection, and reporter gene activity was determined via the luciferase assay system (PROMEGA). PRSV-βGal vector (50 ng) was used to normalize for transfection efficiency by measuring β galactosidase activity using the Galacton-PLUS substrate system (TROPIX, Inc.). Whenever indicated, the cells were treated for 4 hours with TNFα or IL-1 (10 ng/ml). To generate stable transfectants, EFECTENE™ mediated transfection of the RAW cell line was performed and clones were selected and maintained in complete medium supplemented with G418 (2 mg/ml).

[3] = biological target: T1, c-Jun (Homo sapiens, UniProt P05412); experiment: Coimmunoprecipitation / in vitro pull down with c-Jun; type: binding
T1 construct: expressed in transfected cells; host or cells: 293T cells (co-IP); in vitro translated, 35S-labelled c-Jun in the pull-down
Procedure: FIG. 21(A) 293T cells were transfected with c-Jun and myc-KRCtr. 48 hours later, lysates were immunoprecipitated with anti-Myc antibody. Immunoprecipitates were probed by western blotting with anti-c-Jun antibody. FIG. 21(B) (left panel) 293T cells were cotransfected with c-Jun and full length His-KRC. 48 hours later, lysates were immunoprecipitated with anti-His antibody (DE8 Omniprobe) and precipitates were probed by western blotting with anti-c-Jun antibody. (right panel) In vitro translated and S35-labelled c-Jun and His-KRCtr were mixed and immunoprecipitated with anti-His antibody. Recovered c-Jun protein was visualized by autoradiography. FIG. 21(C) Jurkat or EL4 T cells were stimulated with PMA plus ionomycin for 45 minutes. Lysates were immunoprecipitated with anti-c-Jun antibody, and immunoprecipitates were probed with specific anti-KRC rabbit antisera. FIG. 21(D) (upper panel) 293T cells were transfected with AP-1 Luciferase along with c-Jun, c-Fos, and KRC. 24 hours later, Luciferase activity was determined as above. (lower panel) 293T cells were transfected with GAL4 Luciferase along with GAL4, GAL4-c-Jun 1-224, or GAL4-c-Fos 208-313. 24 hours later, luciferase activity was determined as above. […]

[4] = system: NIH 3T3 cells; experiment: β-galactosidase cotransfection apoptosis assay in 3T3 cells; type: cell-based; details: TNFα 20 ng/ml
Procedure: 3T3 cells were cotransfected with CMV lacZ vector (300 ng per plate) and either empty expression vector or the expression vectors indicated (2 μg of each). Half of the transfected cultured cells were treated with TNFα (20 ng/ml) at 12 hours after the transfection and the other half left untreated. All the cells were fixed and stained at 36 hours after the transfection. The number of blue cells in each transfection was determined by counting six different fields. A representative experiment of three performed is presented.
β-galactosidase cotransfection assays for determination of cell death were performed as described (Hsu, et al.). Transfected NIH 3T3 cells were washed with PBS, fixed in PBS containing 3% paraformaldehyde for 10 min at 4° C., and washed with PBS. Fixed cells were stained overnight with XGal. The number of blue-stained cells was determined microscopically. The average number from one representative experiment of three is shown.

[5] = system: JNK; experiment: JNK in vitro kinase assay after transfection of 293 cells; type: cell-based, human; details: 293 cells cotransfected with TRAF2, 24 hours
Procedure: Inhibition of TRAF2 (A) and TNFα (B, C) mediated JNK/SAPK activation by ectopic expression of KRC. (A) 293 T cells were transfected with 400 ng of TRAF2 and 2 μg of the indicated expression vector. Twenty-four hours after the transfection, the cells were harvested and lysed, and the endogenous JNK was precipitated with 5 μg of GST-cJUN (1-79) for 4 hours. JNK activity was determined by using GST-cJUN (1-79) as a substrate. (B,C) 293 T cells were cotransfected with vectors encoding HA-tagged JNK2 (500ng) and the indicated expression vector (2 μg). Twenty-four hours after the transfection cells were stimulated for 10 min with 10 ng/ml of TNFα and cells harvested at varying time points. JNK activity was assayed with GST-cJUN (1-79) as substrate.
Anti-HA or anti-FLAG immunoprecipitates were used for immune complex kinase assays that were performed at 30° C. for 30 min with 1 μg of substrate, 10 μCi of γ^32 P ATP, and 10 μM ATP in 30 μl of kinase buffer (20 mM HEPES, pH 7.4, 10 mM MgCl2, 25 mM β-glycerophosphate, 50 μm NA3VO4, and 50 μm DTT). The substrate was GST-c-JUN.

T1 sequence (P05412 whole entry): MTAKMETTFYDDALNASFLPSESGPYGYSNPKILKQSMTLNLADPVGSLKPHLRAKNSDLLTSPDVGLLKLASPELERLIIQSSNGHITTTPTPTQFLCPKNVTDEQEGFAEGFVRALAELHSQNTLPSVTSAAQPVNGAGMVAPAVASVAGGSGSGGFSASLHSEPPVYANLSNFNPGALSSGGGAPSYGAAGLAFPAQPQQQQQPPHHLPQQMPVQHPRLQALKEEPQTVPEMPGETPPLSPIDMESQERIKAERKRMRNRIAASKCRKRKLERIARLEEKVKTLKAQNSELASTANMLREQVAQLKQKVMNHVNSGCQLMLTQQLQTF

Molecule | KRC transactivation of the AP-1 reporter [1] | KRC transactivation of the AP-1 reporter ([1]; listed as rottlerin) | NFκB activation induced by TRAF5 and TRAF6 ([2]; 293T cells) | NFkB-dependent transactivation ([2]; 293T cells, absence of exogenous TRAFs) | TRAF2-induced NFκB activation ([2]; 293T cells, exogenous TRAF2) | TNFα-induced NFκB activation ([2]; 293 cells, 10 ng/ml TNFα 4 hours) | physical association with c-Jun [3] | physical association with c-Jun ([3]; listed as KRCtr) | TNFα-induced apoptosis (TNF mediated cytotoxicity) [4] | TRAF2-dependent JNK activation [5]
CC(=O)c1c(O)c(C)c(O)c(Cc2c(O)c3c(c(C(=O)/C=C/c4ccccc4)c2O)OC(C)(C)C=C3)c1O [Rottlerin] | blocked | abolished the ability of KRC to enhance AP-1 transactivation | – | – | – | – | – | – | – | –
RasN17: dominant negative Ras | abolished the ability of KRC to enhance AP-1 transactivation | – | – | – | – | – | – | – | – | –
B1 | – | – | substantially but not completely affected | blocked NFkB-dependent transactivation | blocked TRAF2-induced NFκB activation | strongly inhibited TNFα-induced NFκB activation | physically associated with c-Jun | interacted with c-Jun | The same effect was observed | blocked TRAF2-dependent JNK activation
